Key:
rat 6-OHDA model of PD = test: Neurorestoration study in 6-OHDA model of PD in rats; assay type: in vivo; conditions: injected intrastriatally 2 weeks after 6-OHDA lesioning; rotations at 2, 4, 6 and 8 weeks post-lesion
ER stressed SCG neurons = test: Survival of tunicamycin-treated (ER stressed) SCG sympathetic neurons after microinjection; assay type: cell-based, mice; conditions: for survived neurons as % compared to neurons grown in the presence of NGF: Table 1A (FIG. 14), microinjected into cytoplasm, CDNF (400); for Fold change of survived neurons compared to neurons injected with PBS: data of Table 1 divided by values of PBS
How it was run: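 Newborn mouse SCG neurons grown 5-6 days with 30 ng/ml NGF, then microinjected with CDNF (FL or C-terminal) plasmids (10 ng/ul, EGFP reporter) or proteins (200 ng/ul, Dextran Texas Red). Tunicamycin (2 μM) added next day. Fluorescent survivors counted blindly after 3 days as % of initial; compared with vector or PBS (ANOVA/Dunnett).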

[1] = test system: SOD1-G93A mouse ALS model; test: SOD1-G93A mouse model of ALS; assay type: in vivo
Description: Transgenic SOD1 G93A mice served as a transgenic mouse model for ALS in this study. Transgenic mice containing various human SOD1 mutations develop progressive neurodegeneration and motoneuron (MN) death, providing an animal model that has been commonly used for preclinical trials and that has greatly contributed to the understanding of FALS pathogenesis (Gurney et al., 1994). […] In these mice hind limb weakness and tremulous movement appear as initial symptoms at 8-10 week of age, followed by major symptoms such as progressive motor paralysis and neurogenic amyotrophy (Shibata 2001). These mice subsequently show disability of gait, eating and drinking and die within some weeks, usually at 14-16 week of age. The transgenic mice carrying the human SOD1 with the glycine93 to alanine mutated were originally obtained from The Jackson Laboratory (http://www.jax.org), Bar Harbor, ME; Strain B6SJL-TgN (SOD1-G93A) 1Gur). Transgenic expression was analyzed by DNA tail tests and PCR, using specific oligonucleotides and conditions as done previously by others (see homepage Jackson Lab). In all the experiments the wild-type B6SJL-TgN (SOD1) 2Gur were included as controls.
In the single administration experiment, mice at around 13 weeks of age received a single intracerebroventricular injection of PBS or C-CDNF (3.75 μg that is equimolar to full-length CDNF 10 μg diluted in PBS) under isofluorane anesthesia. Mice were then evaluated for signs of disease and body weight changes twice a week. Evaluation was completed by a battery of behavioral tests designed to assess motor activity in the mice; the battery comprises tests e.g rotarod.
In the chronic infusion experiment, 12-week-old SOD1 mice were inserted a brain infusion cannula (connected via catheter-tubing to an Alzet osmotic minipump) to the right lateral ventricle under isoflurane anesthesia. C-CDNF (1.5 μg/24 h) was infused for 28 days. Motor behavior was evaluated with rotarod. Mice were evaluated for clinical signs and body weight changes.
Clinical scoring for SOD1 mice was done using instructions from Jackson laboratory. The mice were carefully examined 2 times a week after they were 12 weeks old. Animals were scored by lifting them gently by the base of their tails and observing them for tremors, stiffness and their ability to extend their limbs. The clinical scoring is on a scale of 1 to 5, based on ALSTDI (ALS therapy Development Institute) hind limb neurological scoring system.
In rotarod, mice were put to a rotating rod (accelerating speed 4-40 rpm/minute), (Ugo Basile, Italy). Cut off time was 4 minutes. Rotarod test was done 2 times a week after the mice were 12 weeks old.

[2] = rat, in vivo, sc
Description: CDNF, C-CDNF and C-MANF were iodinated with ^125I-Na using the lactoperoxidase method. The protein in question was dissolved in 30 μl of 0.25 M phosphate buffer, pH 7.5, and mixed with ^125I-Na (1 mCi/2.8 μl; 1 mCi=37 mBq; GE Healthcare). The reaction was started by adding lactoperoxidase 10 μl of 50 μg/ml and 0.05% H2O2. The mixture was incubated at room temperature for 20 min and the reaction was stopped by adding 3 volumes of 0.1 M phosphate buffer, pH 7.5, containing 0.1 M NaI, 0.42 M NaCl, and then 25 μl of 2.5% BSA was added. Free iodine and iodinated protein were separated by gel filtration on Sephadex G-25 columns (PM10; GE Healthcare). For column equilibrium and elution, 0.1 M phosphate buffer, pH 7.5, with 1% BSA was used. The iodinated growth factors were sometimes concentrated by using YM-10 Centricon columns (Millipore). The specific activity of ^125I-labeled CDNF, C-CDNF and C-MANF was measured on the Wizard 3 1480 Automatic Gamma Counter (Perkin Elmer, Wallac) and was about 10^8 cpm/μg protein. The labelled protein were kept at 4° C. and used within 3 weeks after labelling.
^125I-CDNF, ^125I C-CDNF or ^125I C-MANF (all proteins at 10^6 cpm in 10 μl) were injected subcutaneously to adult male Wistar rats. […] Radioactivity was analyzed in different brain regions by gamma counter. […] The differences between groups were analyzed ANOVA followed by Tukey-Kramers post hoc test.

B1: KYEKTLDLASVDLRKMRVAELKQILHSWGEECRACAEKTDYVNLIQELAPKYAATHPKTEL (peptide, listed as Homo sapiens)
chain: KYEKTLDLASVDLRKMRVAELKQILHSWGEECRACAEKTDYVNLIQELAPKYAATHPKTEL
cumulative amount of amphetamine-induced rotations (rat 6-OHDA model of PD): significantly reduces
survived neurons as % compared to neurons grown in the presence of NGF (ER stressed SCG neurons; AVG of exp1-2, tunicamycin 2 μM): 84.37 % NGF
survived neurons as % compared to neurons grown in the presence of NGF (ER stressed SCG neurons; exp1, tunicamycin 2 μM, counted after 3 days): 78.87 % NGF
survived neurons as % compared to neurons grown in the presence of NGF (ER stressed SCG neurons; exp2, tunicamycin 2 μM, counted after 3 days): 89.87 % NGF
Fold change of survived neurons compared to neurons injected with PBS (ER stressed SCG neurons; Table 2, AVG): 2.28 Fold to PBS
Fold change of survived neurons compared to neurons injected with PBS (ER stressed SCG neurons; Table 2, exp1): 2.30 Fold to PBS
Fold change of survived neurons compared to neurons injected with PBS (ER stressed SCG neurons; Table 2, exp2): 2.26 Fold to PBS
rescue of ER stressed SCG sympathetic neurons (result in words) (ER stressed SCG neurons; expressed from microinjected plasmids, tunicamycin 2 μM, living fluorescent neurons counted after three days): rescue
rescue of ER stressed SCG neurons (result in words) (ER stressed SCG neurons; protein or peptide microinjected into the cytoplasm, tunicamycin 2 μM, living fluorescent neurons counted after 3 days): rescue
motor coordination (rotarod performance) ([1]; 4-week chronic intracerebroventricular infusion 1.5 μg/24 h, significant week 13 until week 19, p<0.01): improves motor coordination
relative changes in body weight ([1]; 4-week chronic intracerebroventricular infusion 1.5 μg/24 h, weeks 18 and 19, p<0.05 vs PBS): Significant differences
motor behavior (rotarod, latency to fall) ([1]; single intracerebroventricular injection 3.75 μg at 13 weeks, SOD1-G93A females, vs PBS): improves the motor behavior
clinical score ([1]; single intracerebroventricular injection 3.75 μg at the age of 13 weeks, female animals, vs PBS): statistically significantly better clinical scores
blood-brain-barrier penetration [2]: capable of penetrating
